Measured values published in article PMC9104846.

Tests used:
[1] = molecular target: Cetuximab (anti-EGFR), full-length IgG; experiment: cross-linking
[2] = molecular target: Trastuzumab (anti-Her2/neu), full-length IgG; experiment: cross-linking

| Substance | percent of IgG labeled with a single SpyCatcher/SpyTag [1] | percent of IgG labeled with a single SpyCatcher/SpyTag [2] | maximum percentage of IgG conjugated to a single pAbBD-SC/ST [2] | maximum percentage of IgG conjugated to a single pAbBD-SC/ST [1] |
| --- | --- | --- | --- | --- |
| pAbBD-(GGS)7-SC-(GGS)4-pAbBD (designed binder) | > 70% | > 70% | – | – |
| pAbBD-(GGS)7-SC-(GGS)7-pAbBD (designed binder) | > 70% | > 70% | – | – |
| pAbBD-(GGS)7-ST-(GGS)4-pAbBD (designed binder) | > 70% | > 70% | – | – |
| pAbBD-(GGS)7-ST-(GGS)7-pAbBD (designed binder) | > 70% | > 70% | – | – |
| photoreactive antibody-binding domain fused to SpyCatcher (designed binder) | – | – | 40% | – |
| photoreactive antibody-binding domain fused to SpyTag (designed binder) | – | – | – | 40% |
